pKd: −log10 of the molar value.
Key:
[1] = biological target: C-terminal domain of FusB (FusB-CTD), wild type (Pectobacterium carotovorum LMG2410); test: SEC; FusB-CTD alone at varying load (0.2, 0.5, 0.8, 1.2, 2 mg); wild type and variants compared at 0.5 mg loaded; monomer and dimer species
[2] = biological target: C-terminal domain of FusB (FusB-CTD), wild type (Pectobacterium carotovorum LMG2410); test: ITC; 25 °C, SEC Buffer (20 mM Hepes, 140 mM NaCl, pH 8.0); typically 1.1 mM analyte injected 19 x 2 μl into 85 μM ligand in the cell; FusB-CTD constructs normally in the cell, SpFer and FusANTR-GFP constructs as injectants
[3] = biological target: FusB-CTD D322N (Pectobacterium carotovorum LMG2410); test: as above
[4] = biological target: FusB-CTD R241A (Pectobacterium carotovorum LMG2410); test: as above
[5] = biological target: FusB-CTD R241K (Pectobacterium carotovorum LMG2410); test: as above
[6] = biological target: C-terminal domain of FusB, R242K variant (Pectobacterium carotovorum LMG2410); test: ITC; 25 °C, SEC Buffer (20 mM Hepes, 140 mM NaCl, pH 8.0), MicroCal iTC200; typically 1.1 mM injectant, 19 x 2 µl, into 85 µM protein in the cell; FusB-CTD constructs normally in the cell; mean of the titrations listed in Table S2
[7] = biological target: C-terminal domain of FusB, wild type (Pectobacterium carotovorum LMG2410); test: as above
[8] = biological target: C-terminal domain of FusB, D322N variant (Pectobacterium carotovorum LMG2410); test: as above
[9] = biological target: C-terminal domain of FusB (FusB-CTD), wild type (Pectobacterium carotovorum LMG2410); test: ITC; competition, sequential titration: SpFer injected into the cell holding FusB-CTD (wild type or D322N) pretitrated with ~2.5 M excess of FusANTR-GFP (wild type or D53A); 25 °C, SEC Buffer; apparent
[10] = biological target: C-terminal domain of FusB, D322N variant (Pectobacterium carotovorum LMG2410); test: ITC; competition, apparent: SpFer injected into the cell holding FusB-CTD (wild type or D322N) pretitrated with ~2.5 M excess of FusANTR-GFP (wild type or D53A); 25 °C, SEC Buffer

Substance “C-terminal domain of FusB (FusB-CTD), wild type (domain or fragment)” has a stoichiometry N [1] of 2.

With “FusANTR-GFP D53A (from UniProt C6DG80 21-66) (domain or fragment)” the pKd [2] was 4.50 and the pKd [3] was 4.50.

Work on “GFP fusion construct containing the N-terminal region (residues 21-66) of FusA (FusANTR-GFP), wild type (from UniProt C6DG80 21-66) (domain or fragment)” yielded a pKd [3] of 5.03, a pKd [4] of 4.41 and a pKd [5] of 4.60.

“GFP fusion construct containing the N-terminal region (residues 21-66) of FusA (domain or fragment)” was tested, and the pKd [6] was 4.48, the stoichiometry N [6] was less than 0.2 and the pKd [7] was 4.51. It also gave a stoichiometry N [7] of less than 0.2.

With “GFP fusion construct containing the N-terminal region (residues 21-66) of FusA, D53A variant (domain or fragment)” the pKd [8] was 4.50.

“SpFer E93A/E94A (from UniProt P00221 51-147) (natural protein)” was tested, and the pKd [2] was 4.50.

Substance SpFer F64Y (natural protein) has a pKd [2] of 4.51.

“Spinacia oleracea (spinach) ferredoxin 1 (SpFer), wild type, recombinant (from UniProt P00221 51-147) (natural protein)” was tested, and the apparent KD with ~2.5 M excess of FusANTR-GFP [9] was 22.3 µM, the pKd [3] was 5.13 and the pKd [5] was 4.59.

With “Spinacia oleracea (spinach) ferredoxin 1 with a C-terminal 6His-tag (from UniProt P00221 51-147) (natural protein)” the pKd [7] was 4.74.

“Spinacia oleracea (spinach) ferredoxin 1, recombinant, tag-free (from UniProt P00221 51-147) (natural protein)” was tested, and the pKd [10] was 4.75 and the pKd [7] was 5.11.
